Data as given in patent US10905748B2, “Ovotransferrin treatment for the reproductive tract” (Vets Plus, Inc., priority 2018, dated 2021).

Assays:
[1] = system: metritis causing bacteria; experiment: Agar well zone of inhibition on bacteria cultured from metritis discharge; assay type: cell-based, bacteria from the discharge of a cow diagnosed with metritis; details: 24 hour diffusion at 37° C.
Method: A cow that was diagnosed with metritis, as evidenced by elevated temperature, elevated total leukocyte count, raised tails, and foul smelling discharge, had the discharge cultured onto blood agar plates. Bacteria colonies with different morphology from the metritis discharge that grew were selected and placed into 20 ml liquid nutrient broth in culture tubes at a defined amount and incubated overnight at 37° C. The bacteria in the liquid nutrient broth was then used to create agar plates by mixing 1 ml of nutrient broth containing bacteria with 15 ml of warm agar and poured into petri dishes and incubated for 24-48 hrs. at 37° C. Then, holes were punched into the agar and a dose response of previously purified ovotransferrin at 0%, 10% and 25% w/v in sterile water was placed in the holes. The plates were allowed to diffuse for 24 hour at 37° C. to check for zone of inhibition. Zones of inhibition were visualized by clearings in the agar where no bacteria grew. […] This is consistent with ovotransferrin in killing the bacteria that cause metritis. It was concluded that ovotransferrin of the invention is able to inhibit growth of the metritis causing bacteria in a dose dependent manner.

[2] = system: Cows with clinical endometritis; experiment: Intrauterine infusion of ovotransferrin solution in cows with clinical endometritis; assay type: in vivo, cow
Description: (§1) Cows with clinical endometritis (n=4) were identified based on the clinical signs, rectal temperature, score of mucus characteristics, total polymorph numbers, pH of uterine discharge, uterine swab analysis, and bacterial culture, along with healthy cows (control, n=4). Two hundred ml of a 5% ovotransferrin solution of the invention were infused intrauterine with a special pipette attached to a pump in the treatment group. Seven days later, all the above parameters were reexamined. Total number of polymorph in uterine discharge was counted using a hemocytometer, stained with Giemsa and Gram stain.
as §1, with “(n=3)” for “(n=4)”, “n=3.” for “n=4).”, “reexamined.” for “reexamined. Total number of polymorph in uterine discharge was counted using a hemocytometer, stained with Giemsa and Gram stain.”
as §1, with “reexamined. Mucus score was 6 times higher” for “reexamined. Total number of polymorph”, “in metritis affected cows than control values. […] This indicates the invention” for “in uterine discharge”, “was efficacious for treatment metritis in cows.” for “was counted using a hemocytometer, stained with Giemsa and Gram stain.”
as §1, with “reexamined.” for “reexamined. Total number of polymorph in uterine discharge was counted using a hemocytometer, stained with Giemsa and Gram stain.”

[3] = system: infectious metritis in cows; experiment: Clinical trial of ovotransferrin bolus to prevent infectious metritis in postpartum cows; assay type: in vivo, cow; details: examined after 30 days
Method: (§2) A clinical trial was conducted to examine efficacy of the invention to prevent infectious metritis in cows. 10 gram of purified Ovotransferrin was mixed with 10 grams of binding agent to create a 20 gram total bolus with dimensions of 2 cm wide and 6 cm long. For N=5 cows from a herd known to have the standard metritis rate were selected that were 3 hours postpartum. Two boluses were inserted into the uterus and allowed to dissolve. The cows were monitor daily for any obvious signs of metritis. After 30 days, the cows were examined in detail for clinical signs of metritis. […] It would be expected that at least one of the cows of this group would have had metritis 10-12 days without the use of the invention.
as §2, with “A single bolus was” for “Two boluses were”
as §2, with “cows. 2.5” for “cows. 10”, “with 17.5” for “with 10”, “For N=7” for “For N=5”
A clinical trial was conducted to examine efficacy of the invention to prevent infectious metritis in cows. 2.5 gram of purified Ovotransferrin was mixed with 17.5 grams of binding agent to create a 20 gram total bolus with dimensions of 2 cm wide and 6 cm long. For N=7 cows from a herd known to have the standard metritis rate were selected that were 3 hours postpartum. A single bolus was inserted into the uterus and allowed to dissolve. The cows were monitor daily for any obvious signs of metritis. After 30 days, the cows were examined in detail for clinical signs of metritis. […]

B1: ovotransferrin (protein, UniProt P02789 20-705, looked up)
Ovotransferrin: APPKSVIRWCTISSPEEKKCNNLRDLTQQERISLTCVQKATYLDCIKAIANNEADAISLDGGQAFEAGLAPYKLKPIAAEVYEHTEGSTTSYYAVAVVKKGTEFTVNDLQGKTSCHTGLGRSAGWNIPIGTLLHRGAIEWEGIESGSVEQAVAKFFSASCVPGATIEQKLCRQCKGDPKTKCARNAPYSGYSGAFHCLKDGKGDVAFVKHTTVNENAPDQKDEYELLCLDGSRQPVDNYKTCNWARVAAHAVVARDDNKVEDIWSFLSKAQSDFGVDTKSDFHLFGPPGKKDPVLKDLLFKDSAIMLKRVPSLMDSQLYLGFEYYSAIQSMRKDQLTPSPRENRIQWCAVGKDEKSKCDRWSVVSNGDVECTVVDETKDCIIKIMKGEADAVALDGGLVYTAGVCGLVPVMAERYDDESQCSKTDERPASYFAVAVARKDSNVNWNNLKGKKSCHTAVGRTAGWVIPMGLIHNRTGTCNFDEYFSEGCAPGSPPNSRLCQLCQGSGGIPPEKCVASSHEKYFGYTGALRCLVEKGDVAFIQHSTVEENTGGKNKADWAKNLQMDDFELLCTDGRRANVMDYRECNLAEVPTHAVVVRPEKANKIRDLLERQEKRFGVNGSEKSKFMMFESQNKDLLFKDLTKCLFKVREGTTYKEFLGDKFYTVISSLKTCNPSDILQMCSFLEGK
notes: 12 to 13% of total egg white protein
- zone of inhibition ([1]; 10% w/v ovotransferrin in sterile water in agar wells): a zone of inhibition was seen
- zone of inhibition ([1]; 25% w/v ovotransferrin in sterile water in agar wells): a larger zone
- Mean pH of uterine discharge ([2]; one week after intrauterine infusion of 200 ml 5% solution, 8.8 before treatment, healthy control 6.8, n=3, p<0.05, FIG. 2): 7.0
- Rectal temperature ([2]; one week after intrauterine infusion of 200 ml 5% solution, >40° C. before treatment, n=4, FIG. 1): 38.5 °C
- Mucus score ([2]; seven days after intrauterine infusion of 200 ml 5% solution, 6 times control before treatment, n=4, FIG. 3): statistically significant decrease
- Total number of polymorph in uterine discharge ([2]; seven days after intrauterine infusion of 200 ml 5% solution, more than 70 times control before treatment, n=4, FIG. 4): statistically significantly (p<0.01) reduced (2 and 4 times higher, respectively, compared with control)
- clinical signs of metritis ([3]; single bolus of 2.5 g ovotransferrin in uterus 3 hours postpartum, N=7): None of the cows had any signs of metritis
- clinical signs of metritis ([3]; single bolus of 10 g ovotransferrin in uterus 3 hours postpartum, N=5): None of the cows had any signs of metritis
- clinical signs of metritis ([3]; two boluses of 2.5 g ovotransferrin (5 grams) in uterus 3 hours postpartum, N=7): None of the cows had any signs of metritis
- clinical signs of metritis ([3]; two boluses of 10 g ovotransferrin (20 grams) in uterus 3 hours postpartum, N=5): None of the cows had any signs of metritis
